Our source for the stoichiometry N values is paper PMC6635623.

This test addresses Hfq-FLAG (Yersinia pestis Hfq with C-terminal 3×FLAG tag) (Yersinia pestis). Kind of test: […]; 25 mM Tris-HCl (pH 8.0) […].

Where “and” joins values, the source holds several entries; their conditions need not be identical. Equal values may be shown once.

For “Hfq-FLAG (Yersinia pestis Hfq with C-terminal 3×FLAG tag) (natural protein)”, the stoichiometry N is 3 and 6.

What is called stoichiometry N is a count of units in the complex or per binding partner.
